Numbered stars: 1 amine (or outer) side, 2 acyl side, 3 side chain; on linkers, the order of the positions; unused ones are H or OH. Square brackets hold non-standard residues; d marks the D form. * marks the point of attachment. AAsp = aza-Asp, O=C(N(CC(=O)[*:3])N[*:1])[*:2]; Cbz = O=C(OCc1ccccc1)*; NHBn = c1ccc(CN*)cc1

The target of one test is autolytically stable caspase-1 variant (D381 E) (UniProt P29466). Kind of test: cell-based or functional assay.
Chain of autolytically stable caspase-1 variant (D381 E) (P29466 other isoform, or with tags, fused parts or gaps mutant limits assumed): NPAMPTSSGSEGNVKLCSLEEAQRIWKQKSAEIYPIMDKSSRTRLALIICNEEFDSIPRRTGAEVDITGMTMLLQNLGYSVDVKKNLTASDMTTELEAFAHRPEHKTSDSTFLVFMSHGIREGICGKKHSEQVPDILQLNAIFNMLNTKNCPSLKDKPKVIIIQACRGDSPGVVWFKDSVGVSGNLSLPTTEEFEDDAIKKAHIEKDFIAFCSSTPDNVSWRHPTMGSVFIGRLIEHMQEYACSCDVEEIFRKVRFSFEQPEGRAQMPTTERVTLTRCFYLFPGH
Molecule Cbz-LET[AAsp]-{(2R,3R)‑EP‑COOEt} [Cbz-Leu-Glu-Thr-AAsp-(2R, 3R)-EP-COOEt] yielded a k2 of 19600 M⁻¹ s⁻¹.
Still for that read-out and setting: under Cbz-LET[AAsp]-{(S,S)‑EP‑COOCH2Ph} [Cbz-Leu-Glu-Thr-AAsp-(S,S)-EP-COOCH2Ph] stands 43500 M⁻¹ s⁻¹; under Cbz-LET[AAsp]-{(2S,3S)‑EP‑COOEt} [Cbz-Leu-Glu-Thr-AAsp-(2S, 3S)-EP-COOEt], 25700 M⁻¹ s⁻¹.

In a further test the target is T1, caspase-6 (UniProt P55212).
T1 sequence (looked up): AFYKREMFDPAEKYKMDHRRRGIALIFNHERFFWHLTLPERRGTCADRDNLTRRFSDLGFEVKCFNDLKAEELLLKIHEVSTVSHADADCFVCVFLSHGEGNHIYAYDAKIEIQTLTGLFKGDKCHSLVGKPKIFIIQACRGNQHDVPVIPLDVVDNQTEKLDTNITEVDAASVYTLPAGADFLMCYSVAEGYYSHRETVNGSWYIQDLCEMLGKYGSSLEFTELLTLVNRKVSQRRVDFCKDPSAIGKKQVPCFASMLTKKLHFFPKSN
The test is described as follows: cell-based or functional assay.
Take Cbz-LET[AAsp]-{(2S,3S)‑EP‑CON(CH2Ph)2} [Cbz-Leu-Glu-Thr-AAsp-(2S,3S)-EP-CON(CH2Ph)2]: the k2 was determined as 13800 M⁻¹ s⁻¹.
On the same count and under the same terms, for Cbz-LET[AAsp]-{(2S,3S)‑EP‑CON(CH3)CH2Ph} [Cbz-Leu-Glu-Thr-AAsp-(2S,3S)-EP-CON(CH3)CH2Ph] the value was 9680 M⁻¹ s⁻¹.

A further test concerns the target T2, caspase-3 (UniProt P42574).
T2 sequence (looked up): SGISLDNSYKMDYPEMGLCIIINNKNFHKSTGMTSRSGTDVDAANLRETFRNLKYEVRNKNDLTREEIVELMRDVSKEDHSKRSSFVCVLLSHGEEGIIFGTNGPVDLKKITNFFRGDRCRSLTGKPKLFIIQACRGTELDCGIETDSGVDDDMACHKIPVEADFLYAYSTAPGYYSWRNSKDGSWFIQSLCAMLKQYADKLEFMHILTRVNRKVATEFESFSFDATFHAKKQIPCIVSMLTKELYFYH
The test is described as follows: cell-based or functional assay.
Cbz-LET[AAsp]-{(2S,3S)‑EP‑CON(CH2Ph)2} [Cbz-Leu-Glu-Thr-AAsp-(2S,3S)-EP-CON(CH2Ph)2] registered a k2 of 2750 M⁻¹ s⁻¹.
The molecule Cbz-LET[AAsp]-{(2S,3S)‑EP‑CON(CH3)CH2Ph} [Cbz-Leu-Glu-Thr-AAsp-(2S,3S)-EP-CON(CH3)CH2Ph] registered a k2 of 2640 M⁻¹ s⁻¹.
Same read-out and setting: for Cbz-LET[AAsp]-{(2R,3R)‑EP‑COOEt} [Cbz-Leu-Glu-Thr-AAsp-(2R, 3R)-EP-COOEt] the value was 3250 M⁻¹ s⁻¹.
Cbz-LET[AAsp]-{(S,S)‑EP‑CO-Ala-NHBn} [Cbz-Leu-Glu-Thr-AAsp-(S,S)-EP-CO-Ala-NHCH2Ph] returned a k2 of 1280 M⁻¹ s⁻¹.
In turn, Cbz-LET[AAsp]-{(S,S)‑EP‑COOCH2Ph} [Cbz-Leu-Glu-Thr-AAsp-(S,S)-EP-COOCH2Ph] gave a k2 of 3520 M⁻¹ s⁻¹.
Cbz-LET[AAsp]-{(S,S)‑EP‑CONHCH2CH2Ph} [Cbz-Leu-Glu-Thr-AAsp-(S,S)-EP-CONHCH2CH2Ph] had a k2 of 2550 M⁻¹ s⁻¹.
Turning to Cbz-LET[AAsp]-{(2S,3S)‑EP‑COOEt} [Cbz-Leu-Glu-Thr-AAsp-(2S, 3S)-EP-COOEt], the k2 was 3210 M⁻¹ s⁻¹.

The values above are taken from patent US20040048327A1.
